Source: paper PMC8380825 (Journal of molecular biology, 2021)
Values joined by “and” are separate entries in the source; they are usually repeats but may differ in a detail not shown here. Equal entries are not always repeated. Where two headings read alike, the source gives them in different places. Where no end group is shown, it is not given here. TAMRA = 5(6)-carboxytetramethylrhodamine

Tests used:
NPR-1 [1] = target: T1, NPR-1 (Caenorhabditis elegans, UniProt Q18534); assay: cAMP reporter gene assay; format: cell-based, C. elegans; details: wild type NPR-1
T1 sequence (Q18534 1-457): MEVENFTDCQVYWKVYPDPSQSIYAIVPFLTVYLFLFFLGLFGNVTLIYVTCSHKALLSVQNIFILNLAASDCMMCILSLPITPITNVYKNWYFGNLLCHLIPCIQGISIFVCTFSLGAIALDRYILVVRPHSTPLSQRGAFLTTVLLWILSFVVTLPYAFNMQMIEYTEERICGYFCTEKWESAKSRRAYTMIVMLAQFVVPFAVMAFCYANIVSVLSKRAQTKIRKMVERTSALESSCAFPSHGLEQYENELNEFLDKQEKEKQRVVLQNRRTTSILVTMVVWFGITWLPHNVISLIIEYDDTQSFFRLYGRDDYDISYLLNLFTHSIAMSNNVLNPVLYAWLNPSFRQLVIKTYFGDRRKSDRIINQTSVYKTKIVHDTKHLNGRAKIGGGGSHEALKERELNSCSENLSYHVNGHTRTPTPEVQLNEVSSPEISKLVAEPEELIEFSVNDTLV

[2] = target: T2, Nluc-NPR-1-eYFP (C. elegans neuropeptide receptor NPR-1, wild type) (C. elegans) (UniProt Q18534)
T2 sequence: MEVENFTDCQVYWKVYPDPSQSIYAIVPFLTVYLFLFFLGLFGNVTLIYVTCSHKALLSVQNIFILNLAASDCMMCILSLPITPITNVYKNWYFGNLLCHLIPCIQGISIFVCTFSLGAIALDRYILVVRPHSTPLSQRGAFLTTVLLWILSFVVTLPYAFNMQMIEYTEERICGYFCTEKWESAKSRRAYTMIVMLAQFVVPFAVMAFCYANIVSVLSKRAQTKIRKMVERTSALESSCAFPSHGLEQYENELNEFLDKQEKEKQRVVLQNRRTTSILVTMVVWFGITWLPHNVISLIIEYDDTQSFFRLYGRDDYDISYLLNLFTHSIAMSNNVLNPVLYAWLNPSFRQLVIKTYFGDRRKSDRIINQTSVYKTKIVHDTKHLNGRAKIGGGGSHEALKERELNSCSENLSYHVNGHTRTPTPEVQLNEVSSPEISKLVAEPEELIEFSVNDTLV

NPR-11 = target: T3, NPR-11 (Caenorhabditis elegans, UniProt Q18179); assay: cAMP reporter gene assay; format: cell-based, C. elegans; details: wild type NPR-11
T3 sequence (Q18179 1-402): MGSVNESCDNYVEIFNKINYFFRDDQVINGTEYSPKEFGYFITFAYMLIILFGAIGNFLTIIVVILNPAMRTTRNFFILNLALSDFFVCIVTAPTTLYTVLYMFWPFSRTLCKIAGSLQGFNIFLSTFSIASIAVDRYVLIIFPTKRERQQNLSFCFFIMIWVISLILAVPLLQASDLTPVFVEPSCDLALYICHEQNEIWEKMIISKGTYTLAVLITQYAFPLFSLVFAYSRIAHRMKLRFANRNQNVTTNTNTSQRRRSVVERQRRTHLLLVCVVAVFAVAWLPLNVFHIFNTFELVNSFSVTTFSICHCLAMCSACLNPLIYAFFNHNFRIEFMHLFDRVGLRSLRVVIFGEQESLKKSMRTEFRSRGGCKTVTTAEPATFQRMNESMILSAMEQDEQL

NPR-1 [3] = target: T1, NPR-1; assay: NanoBRET displacement binding assay, Nluc-NPR-1; set-up: species or system C. elegans; details: HEK293 membranes, 100 nM [TAMRA]-FLP-21 tracer, 90 min, room temperature
[4] = target: T2, Nluc-NPR-1-eYFP (C. elegans neuropeptide receptor NPR-1, wild type) (C. elegans); remark: listed apart in the source
NPR-1 mutants [5] = target: NPR-1 mutants (Caenorhabditis elegans, UniProt Q18534, E180D); assay: cAMP reporter gene assay; format: cell-based, C. elegans; details: NPR-1 E^5.27D
NPR-1 mutants [6] = target: NPR-1 mutants (Caenorhabditis elegans, UniProt Q18534, E301A); assay: cAMP reporter gene assay; format: cell-based, C. elegans; details: NPR-1 E^6.59A
NPR-11 mutants = NPR-11 mutants (Caenorhabditis elegans, UniProt Q18179, E196D); assay: cAMP reporter gene assay; format: cell-based, C. elegans; details: NPR-11 E^5.23D
[7] = target: Nluc-NPR-11-eYFP Q3.32A (C. elegans) (UniProt Q18179)
[8] = target: NPR-1-eYFP E6.59A (C. elegans), Q18534
[9] = target: NPR-1-eYFP E6.59D (C. elegans), Q18534
[10] = target: NPR-1-eYFP E5.27D (C. elegans), Q18534
[11] = target: NPR-11-eYFP E5.23D (C. elegans), Q18179
[12] = target: T2, Nluc-NPR-1-eYFP (C. elegans neuropeptide receptor NPR-1, wild type) (C. elegans); remark: listed apart in the source
[13] = target: T2, Nluc-NPR-1-eYFP (C. elegans neuropeptide receptor NPR-1, wild type) (C. elegans); remark: listed apart in the source
[14] = target: T4, Nluc-NPR-1-eYFP (C. elegans neuropeptide receptor NPR-1, wild type) (C. elegans, UniProt Q18534 1-457); assay: cell-based or functional assay
T4 sequence (looked up): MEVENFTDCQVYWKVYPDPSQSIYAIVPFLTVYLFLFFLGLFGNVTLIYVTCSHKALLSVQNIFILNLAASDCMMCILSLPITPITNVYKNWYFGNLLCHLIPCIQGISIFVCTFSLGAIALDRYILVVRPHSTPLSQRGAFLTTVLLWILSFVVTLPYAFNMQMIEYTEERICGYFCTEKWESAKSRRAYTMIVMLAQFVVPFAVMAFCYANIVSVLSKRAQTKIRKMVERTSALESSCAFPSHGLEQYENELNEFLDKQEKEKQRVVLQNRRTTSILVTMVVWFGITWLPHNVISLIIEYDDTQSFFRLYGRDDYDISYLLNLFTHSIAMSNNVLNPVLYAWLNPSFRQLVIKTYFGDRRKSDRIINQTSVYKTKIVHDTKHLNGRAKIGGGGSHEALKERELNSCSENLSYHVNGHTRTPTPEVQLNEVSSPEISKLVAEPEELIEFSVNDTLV

[15] = target: Nluc-NPR-11-eYFP Q3.32A (C. elegans) (UniProt Q18179); assay: FRET or BRET
[16] = target: T5, Nluc-NPR-11-eYFP (C. elegans neuropeptide receptor NPR-11, wild type) (C. elegans, UniProt Q18179 1-402); assay: cell-based or functional assay
T5 sequence (looked up): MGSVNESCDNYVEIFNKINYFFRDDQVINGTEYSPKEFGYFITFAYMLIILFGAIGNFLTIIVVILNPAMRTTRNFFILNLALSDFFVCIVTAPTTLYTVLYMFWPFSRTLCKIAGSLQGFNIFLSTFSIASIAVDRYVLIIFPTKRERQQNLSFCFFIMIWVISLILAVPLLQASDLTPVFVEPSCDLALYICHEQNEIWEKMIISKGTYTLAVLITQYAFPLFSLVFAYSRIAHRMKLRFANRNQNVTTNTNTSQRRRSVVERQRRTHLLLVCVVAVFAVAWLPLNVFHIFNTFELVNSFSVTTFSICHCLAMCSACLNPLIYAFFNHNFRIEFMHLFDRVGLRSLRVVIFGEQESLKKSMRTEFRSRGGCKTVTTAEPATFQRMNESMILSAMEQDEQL

[17] = target: T5, Nluc-NPR-11-eYFP (C. elegans …); assay: FRET or BRET
[18] = target: Nluc-NPR-11-eYFP Q3.32H (C. elegans) (UniProt Q18179); assay: FRET or BRET
[19] = target: T4, Nluc-NPR-1-eYFP (C. elegans …); assay: FRET or BRET

Chain of NPR-11 mutants (Q18179 whole entry E196D): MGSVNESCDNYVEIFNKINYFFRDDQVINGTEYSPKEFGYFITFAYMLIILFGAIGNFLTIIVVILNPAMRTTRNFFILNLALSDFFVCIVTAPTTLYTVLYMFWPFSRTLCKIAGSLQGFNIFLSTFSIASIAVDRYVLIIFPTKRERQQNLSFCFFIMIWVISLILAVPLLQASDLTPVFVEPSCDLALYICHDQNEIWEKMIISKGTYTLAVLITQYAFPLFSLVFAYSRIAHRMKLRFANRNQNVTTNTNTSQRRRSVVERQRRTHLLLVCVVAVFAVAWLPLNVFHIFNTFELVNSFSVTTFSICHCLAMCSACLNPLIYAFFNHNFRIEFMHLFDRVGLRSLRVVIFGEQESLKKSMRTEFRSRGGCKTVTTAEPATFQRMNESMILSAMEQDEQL
Chain of NPR-1 mutants (Caenorhabditis elegans, UniProt Q18534, E180D) (Q18534 whole entry E180D): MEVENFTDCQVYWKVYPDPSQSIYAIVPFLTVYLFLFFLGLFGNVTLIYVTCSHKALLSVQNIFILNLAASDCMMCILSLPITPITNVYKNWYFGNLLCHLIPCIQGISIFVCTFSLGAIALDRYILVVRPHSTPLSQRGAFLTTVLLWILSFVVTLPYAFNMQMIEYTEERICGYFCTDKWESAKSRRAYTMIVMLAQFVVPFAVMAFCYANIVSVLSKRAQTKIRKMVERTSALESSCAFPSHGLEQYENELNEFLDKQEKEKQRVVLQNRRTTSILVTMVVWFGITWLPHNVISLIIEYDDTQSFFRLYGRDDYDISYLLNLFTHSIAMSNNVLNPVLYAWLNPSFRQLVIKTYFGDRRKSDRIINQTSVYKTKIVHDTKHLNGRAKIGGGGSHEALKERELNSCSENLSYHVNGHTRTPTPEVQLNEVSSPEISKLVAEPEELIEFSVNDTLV
Chain of NPR-1 mutants (Caenorhabditis elegans, UniProt Q18534, E301A) (Q18534 whole entry E301A): as the sequence (Q18534 whole entry E180D) above, with D180E, E301A counted along it

## Ac-FLP-21: FLP-21 acetylated at the free N terminus (Ac-GLGPRPLRF-NH2)
NPR-1 [1]
  EC50 shift (loss of potency) relative to wild type FLP-21: 3 fold

## [F9Cha]-FLP-21 (peptide)
[2]
  cAMP reporter gene assay (Gi/o), EC50 shift against wild type FLP-21: > 600 fold

## [F^9Cha]-FLP-21: FLP-21 variant, F^9 replaced with cyclohexylalanine
NPR-1 [1]
  EC50 shift (loss of potency) relative to wild type FLP-21: > 600 fold
NPR-11
  EC50 shift relative to wild type FLP-21: 20 fold

## [F^9Y]-FLP-21: FLP-21 variant, F^9 to tyrosine (GLGPRPLRY-NH2)
NPR-1 [1]
  EC50 shift (loss of potency) relative to wild type FLP-21: 14 fold
NPR-11
  receptor activation in words: wild type-like activity
NPR-1 [3]
  Ki shift relative to wild type FLP-21: 11 fold

## [L^16A]-FLP-34–1: FLP-34–1 variant, L^16 to alanine (ADISTFASAINNAGRARY-NH2)
NPR-11
  EC50 shift relative to wild type FLP-34–1: > 140 fold

## [L^16Q]-FLP-34–1: FLP-34–1 variant, L^16 to glutamine (ADISTFASAINNAGRQRY-NH2)
NPR-11
  receptor activation in words: impaired activation

## [P^6A]-FLP-21: FLP-21 variant, P^6 to alanine (GLGPRALRF-NH2)
NPR-1 [1]
  EC50 shift (loss of potency) relative to wild type FLP-21: 34 fold
NPR-11
  EC50 shift relative to wild type FLP-21: 18 fold

## [R5hArg]-FLP-21 (peptide)
[4]
  cAMP reporter gene assay (Gi/o), EC50 of receptor activation: 5.2 nM

## [R^5A]-FLP-21: FLP-21 variant, R^5 to alanine (GLGPAPLRF-NH2)
NPR-1 [1]
  EC50 shift (loss of potency) relative to wild type FLP-21: 368 fold

## [R^8hArg]-FLP-21: FLP-21 variant, R^8 replaced with homoarginine
NPR-1 [1]
  EC50 shift (loss of potency) relative to wild type FLP-21: > 900 fold and 976 fold
NPR-1 mutants [5]
  EC50 shift relative to wild type FLP-21 at the same receptor mutant: 34 fold
NPR-1 mutants [6]
  EC50 shift relative to wild type FLP-21 at the same receptor mutant: 91 fold
NPR-11
  EC50 shift relative to wild type FLP-21: 135 fold

## [R^15A]-FLP-34–1: FLP-34–1 variant, R^15 to alanine (ADISTFASAINNAGALRY-NH2)
NPR-11
  EC50 shift relative to wild type FLP-34–1: > 900 fold

## [R^17hArg]-FLP-34–1: FLP-34–1 variant, R^17 to homoarginine
NPR-11
  EC50 shift relative to wild type FLP-34–1: > 70 fold and 77 fold
NPR-11 mutants
  EC50 shift compared to wild type FLP-34–1 at the same receptor mutant: 0.9 fold

## GLGPRPLRF-NH2 [FLP-21 (…amide)]
[7]
  cAMP reporter gene assay (Gi/o), EC50 of receptor activation: 0.1 nM
[8]
  cAMP reporter gene assay (Gi/o), EC50 of receptor activation: 20 nM
[9]
  cAMP reporter gene assay (Gi/o), EC50 of receptor activation: 0.13 nM
[10]
  cAMP reporter gene assay (Gi/o), EC50 of receptor activation: 495 nM

## ADISTFASAINNAGRLRY-NH2 [FLP-34–1 (…amide)]
[11]
  cAMP reporter gene assay (Gi/o), EC50 against the wild type receptor: 92 fold

## GLGPAPLRF-NH2 [[R5A]-FLP-21]
[12]
  cAMP reporter gene assay (Gi/o), EC50 shift against wild type FLP-21: 368 fold

## GLGPRALRF-NH2 [[P6A]-FLP-21]
[12]
  cAMP reporter gene assay (Gi/o), decrease of activity against wild type FLP-21: 34 fold

## Ac-GLGPRPLRF-NH2 [N-terminally acetylated FLP-21]
[13]
  cAMP reporter gene assay (Gi/o), reduction of potency against wild type FLP-21: 3 fold

## {TAMRA}-GLGPRPLRF-NH2 [[TAMRA]-FLP-21]
[14]
  cAMP reporter gene assay (Gi/o), reduction of potency against wild type FLP-21: 12 fold
[15]
  Kd: 190 nM

## GLGPRPARF-NH2 [[L7A]-FLP-21]
[14]
  cAMP reporter gene assay (Gi/o), decrease of activity against wild type FLP-21: 497 fold
[16]
  cAMP reporter gene assay (Gi/o), EC50 shift against wild type FLP-21: 10 fold
[15]
  fold reduction of Ki against FLP-21: 100 fold
[17]
  fold reduction of Ki against FLP-21: < 10 fold

## {TAMRA}-ADISTFASAINNAGRLRY-NH2 [[TAMRA]-FLP-34–1]
[18]
  fold reduction of binding affinity against wild type NPR-11: 4 fold

## GLGPRPLRF-NH2 [FLP-21 (GLGPRPLRFamide)]
[17]
  Ki: 107 nM

## GLGPRPLRY-NH2 [[F9Y]-FLP-21]
[14]
  cAMP reporter gene assay (Gi/o), EC50 shift against wild type FLP-21: 14 fold
[19]
  fold shift of Ki against wild type FLP-21: 11 fold

## ADISTFASAINNAGRLRY-NH2 [FLP-34–1 (ADISTFASAINNAGRLRYamide)]
[17]
  Ki: 107 nM
